US20090305953A1
Where “and” joins values, the source holds several entries; their conditions need not be identical. Identical values can stand only once. One block for each substance: values may come before it.

Assays:
[1] = molecular target: N,N′-diacetyl-Lys-D-Ala-D-Ala; assay: ITC, no HSA
bovine albumin (bovine) = bovine albumin (bovine) (UniProt P02769); assay: ITC, single-site model
dog albumin (dog) = dog albumin (dog) (UniProt P49822); assay: ITC, single-site model
[2] = molecular target: human α-glycoprotein (human) (UniProt P02763); assay: ITC, single-site model
rat albumin (rat) = rat albumin (rat) (UniProt P02770); assay: ITC, single-site model
[3] = molecular target: N,N′-diacetyl-Lys-D-Ala-D-Ala; assay: ITC, tri-peptide injected into dalbavancin, 10 °C, no HSA
[4] = molecular target: human α-glycoprotein (human) (UniProt P02763); assay: calculated from ITC Ka; 1 µM antibiotic, 1.5×10^-5 M α-glycoprotein assumed
[5] = molecular target: human α-glycoprotein (human) (UniProt P02763); assay: calculated from ITC Ka; 10 µM antibiotic, 1.5×10^-5 M α-glycoprotein assumed
[6] = molecular target: human α-glycoprotein (human) (UniProt P02763); assay: calculated from ITC Ka; 100 µM antibiotic, 1.5×10^-5 M α-glycoprotein assumed
[7] = molecular target: human α-glycoprotein (human) (UniProt P02763); assay: calculated from ITC Ka; 165 µM antibiotic, 1.5×10^-5 M α-glycoprotein assumed
[8] = molecular target: human α-glycoprotein (human) (UniProt P02763); assay: calculated from ITC Ka; 250 µM antibiotic, 1.5×10^-5 M α-glycoprotein assumed
[9] = molecular target: human α-glycoprotein (human) (UniProt P02763); assay: calculated from ITC Ka; 500 µM antibiotic, 1.5×10^-5 M α-glycoprotein assumed
[10] = molecular target: human serum albumin (human) (UniProt P02768); assay: calculated from ITC Ka; 1 µM antibiotic, 6×10^-4 M human serum albumin assumed
[11] = molecular target: human serum albumin (human) (UniProt P02768); assay: calculated from ITC Ka; 10 µM antibiotic, 6×10^-4 M human serum albumin assumed
[12] = molecular target: human serum albumin (human) (UniProt P02768); assay: calculated from ITC Ka; 100 µM antibiotic, 6×10^-4 M human serum albumin assumed
[13] = molecular target: human serum albumin (human) (UniProt P02768); assay: calculated from ITC Ka; 165 µM antibiotic, 6×10^-4 M human serum albumin assumed
[14] = molecular target: human serum albumin (human) (UniProt P02768); assay: calculated from ITC Ka; 250 µM antibiotic, 6×10^-4 M human serum albumin assumed
[15] = molecular target: human serum albumin (human) (UniProt P02768); assay: calculated from ITC Ka; 500 µM antibiotic, 6×10^-4 M human serum albumin assumed
[16] = molecular target: N,N′-diacetyl-Lys-D-Ala-D-Ala; assay: ITC, tri-peptide injected into dalbavancin, 25 °C, apparent value in the presence of 13.6 µM HSA
[17] = molecular target: N,N′-diacetyl-Lys-D-Ala-D-Ala; assay: ITC, tri-peptide injected into dalbavancin, 25 °C, apparent value in the presence of 34.2 µM HSA
[18] = molecular target: N,N′-diacetyl-Lys-D-Ala-D-Ala; assay: ITC, tri-peptide injected into dalbavancin, 25 °C, apparent value in the presence of 80.7 µM HSA

Sequence of human α-glycoprotein (human) (P02763 19-201): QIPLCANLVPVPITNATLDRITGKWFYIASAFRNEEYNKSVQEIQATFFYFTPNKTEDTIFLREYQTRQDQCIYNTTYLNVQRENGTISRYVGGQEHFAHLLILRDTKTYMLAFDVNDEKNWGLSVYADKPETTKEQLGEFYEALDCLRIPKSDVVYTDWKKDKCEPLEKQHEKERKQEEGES
Sequence of rat albumin (rat) (P02770 25-608 limits assumed): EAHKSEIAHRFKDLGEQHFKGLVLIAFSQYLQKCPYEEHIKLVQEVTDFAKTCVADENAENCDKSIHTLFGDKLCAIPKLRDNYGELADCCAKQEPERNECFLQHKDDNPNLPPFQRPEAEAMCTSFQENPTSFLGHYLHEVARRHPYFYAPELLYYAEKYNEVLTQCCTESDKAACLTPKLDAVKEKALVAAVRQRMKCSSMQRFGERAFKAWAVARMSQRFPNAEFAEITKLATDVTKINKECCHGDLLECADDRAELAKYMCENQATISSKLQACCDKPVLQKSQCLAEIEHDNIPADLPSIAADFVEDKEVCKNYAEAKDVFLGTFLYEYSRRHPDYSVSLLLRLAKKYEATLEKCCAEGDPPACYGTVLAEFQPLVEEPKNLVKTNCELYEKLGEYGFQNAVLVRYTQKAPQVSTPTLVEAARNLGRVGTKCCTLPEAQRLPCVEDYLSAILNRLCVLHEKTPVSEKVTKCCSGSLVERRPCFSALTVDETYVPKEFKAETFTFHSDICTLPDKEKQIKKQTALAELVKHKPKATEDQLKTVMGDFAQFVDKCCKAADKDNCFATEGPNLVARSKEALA
Sequence of dog albumin (dog) (P49822 25-608 limits assumed): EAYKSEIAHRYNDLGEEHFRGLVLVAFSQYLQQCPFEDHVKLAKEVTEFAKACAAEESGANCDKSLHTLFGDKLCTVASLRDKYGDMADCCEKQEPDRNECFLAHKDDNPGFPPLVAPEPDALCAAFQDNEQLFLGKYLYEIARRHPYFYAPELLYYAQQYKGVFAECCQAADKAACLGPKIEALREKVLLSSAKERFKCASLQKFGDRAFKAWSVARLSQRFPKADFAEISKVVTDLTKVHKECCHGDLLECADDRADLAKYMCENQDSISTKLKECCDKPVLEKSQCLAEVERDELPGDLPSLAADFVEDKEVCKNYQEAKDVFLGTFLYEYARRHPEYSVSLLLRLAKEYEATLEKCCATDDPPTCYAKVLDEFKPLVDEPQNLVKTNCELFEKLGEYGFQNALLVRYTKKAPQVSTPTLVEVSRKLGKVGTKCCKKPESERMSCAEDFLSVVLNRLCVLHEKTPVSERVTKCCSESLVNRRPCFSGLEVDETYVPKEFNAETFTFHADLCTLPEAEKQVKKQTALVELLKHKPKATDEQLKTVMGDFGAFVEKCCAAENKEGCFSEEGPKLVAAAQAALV
Sequence of bovine albumin (bovine) (P02769 25-607 limits assumed): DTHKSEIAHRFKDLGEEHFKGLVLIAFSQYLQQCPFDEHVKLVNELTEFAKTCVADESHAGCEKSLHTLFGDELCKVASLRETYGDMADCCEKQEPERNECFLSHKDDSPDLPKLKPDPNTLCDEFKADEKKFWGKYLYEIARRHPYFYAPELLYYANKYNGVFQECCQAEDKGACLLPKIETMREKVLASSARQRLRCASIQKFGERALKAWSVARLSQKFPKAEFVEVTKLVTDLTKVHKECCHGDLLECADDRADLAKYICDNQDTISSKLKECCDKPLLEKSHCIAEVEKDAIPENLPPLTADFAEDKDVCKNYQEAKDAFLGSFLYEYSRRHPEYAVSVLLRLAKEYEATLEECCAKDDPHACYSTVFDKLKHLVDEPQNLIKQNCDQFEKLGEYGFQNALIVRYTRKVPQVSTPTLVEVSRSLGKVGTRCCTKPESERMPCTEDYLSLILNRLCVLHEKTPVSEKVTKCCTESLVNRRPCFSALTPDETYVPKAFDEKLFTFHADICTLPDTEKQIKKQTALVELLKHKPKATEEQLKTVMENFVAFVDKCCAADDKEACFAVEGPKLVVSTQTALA

- N [1]: 0.5
- N (binding stoichiometry, protein per dalbavancin) (bovine albumin (bovine)): < 1
- N (binding stoichiometry, protein per dalbavancin) (dog albumin (dog)): < 1
- N (binding stoichiometry, protein per dalbavancin) [2]: < 1
- N (binding stoichiometry, protein per dalbavancin) (rat albumin (rat)): < 1
- N [3]: 0.59 and 0.56
- calculated percent binding [4]: 73%
- calculated percent binding [5]: 68.2%
- calculated percent binding [6]: 26.2%
- calculated percent binding [7]: 16.9%
- calculated percent binding [8]: 11.4%
- calculated percent binding [9]: 5.9%
- calculated percent binding [10]: 98.8%
- calculated percent binding [11]: 98.8%
- calculated percent binding [12]: 98.7%
- calculated percent binding [13]: 98.6%
- calculated percent binding [14]: 98.5%
- calculated percent binding [15]: 98%
- N [16]: 0.35 and 0.37
- N [17]: 0.68
- N [18]: 0.83
Substance: dalbavancin (peptide)

- calculated percent binding [4]: 9.6%
- calculated percent binding [5]: 9.1%
- calculated percent binding [6]: 6%
- calculated percent binding [10]: 98.3%
- calculated percent binding [11]: 98.3%
- calculated percent binding [12]: 98%
Substance: teicoplanin (peptide)
